Data: the RNAGym collection of RNA variant scans (doi:10.1021/acssynbio.7b00057)

B1: Pistol ribozyme (parent)
chain: GGGUCGUUGUUCCAUAAUCGCGUGGAUAUGGCACGCAAGUUUCUACCGGGCACCGUAAAUGUCCGACUGGAGCCGUUCGGGCGGCUAUAAACAGACCUCAGGCCCGAAGCGUGGCGGCACCUGCCGCCGGUGGUAAAAAAGAUCGGAAGAGCACACGUCU

Variants of: B1
Assay: aptazyme ON/OFF ratio, guanine; higher = stronger switching; co-transcriptional cleavage with and without guanine

Variant | aptazyme ON/OFF ratio
U7G U8A G9C U10A U11G C13G | 1.05
U8A G9C U11C C12U | 1.09
U7G U10A U11C C13U | 1.02
U7G U8A G9A U11G C13A | 1.13
U8G G9U U10A C12A C13U | 1.25
U7A U10C C12G C13G | 1.35
U7C U8G G9C U10C U11C C13G | 1.03
G9U U10G U11G C12U C13A | 1.1
U7G U8A G9C U10A U11A C13U | 1.04
U7G G9C U10C U11A C12A C13G | 1.15
U7A U8C U10C U11C C12A C13U | 1.16
U7A U8A U10C U11G C12G | 1.34
U7G G9A U10G U11C C12U C13A | 1.08
U7G U8A G9U | 2.15
G9U U10A U11A C13U | 1.25
U8G G9U U10G U11A C12A C13G | 1.03
U8G G9A U10C C12G C13A | 1.21
U7C G9C U10G U11A C12A C13G | 1.09
G9C U10G U11A C12A C13U | 1.52
U7C G9A U10A U11G C13A | 1.07
U7C U8A G9U U10C C12U C13U | 1.13

Variant | aptazyme ON/OFF ratio
U7A U8A G9A U10C U11G C12U C13A | 1.14
U7G U8G G9C U10C U11G C12A C13A | 1.17
U7G U8G G9A U10C C13U | 1.59
G9U C12U C13G | 1.3
U7C U8G U10G U11C C12G C13G | 1.18
U8G G9C U10C U11A C13G | 1.05
U8G U10G U11C C13G | 1.02
U7C U8A U11A C12A C13U | 1.26
U7G U8C G9U U11G | 1.36
U7G U8G G9A U10C U11A C12A C13G | 1.15
U7G G9C U11A C12G C13A | 1.2
U7A G9C U11G C12G C13G | 1.14
U7G U8A G9A U10A U11C C13U | 1.05
U7A U8C G9C U11G C13A | 1.05
U8G G9U U10A U11A | 1.59
U7A U8G G9C U11G C12A | 1.67
U7C U8A G9A U10G U11G C12U | 1.39
U7C U8C U10C U11A C13G | 1.18
U8A U10C U11C C12G C13G | 1.1
U7A U8A G9U U10A U11C C12G C13G | 1.15
U7C G9U U10G U11C C12U C13A | 1.19

Variant | aptazyme ON/OFF ratio
U7G U8G U11C C12G C13A | 1.33
U7G U8A U10G U11A C12G | 1.43
U7C U8G G9U U10C U11G C12A C13A | 1.1
G9U U10A C12G C13A | 1.07
U7A U8G G9C U10C U11G C12A | 1.06
U7A U8C G9A U10G U11C C12A C13G | 1.25
U7A U8C G9A U10A U11C C12A | 1.15
U7G U8G G9C C12A C13G | 1.08
U7G U8A G9C U10G U11G C13U | 1.27
U8A U10G U11G C12U C13U | 1.43
U7G U8C G9C U10G C12A | 1.13
U7G U8C G9U U10A U11A C13G | 1.08
U7C U8G G9U U10A U11G C12G C13A | 1.05
U8G G9C U10C U11C C12U | 1.06
U7G U10C C12A C13A | 1.1
U7A U8G G9U U10C C12G C13A | 1.39
U7C U11G C12U C13U | 1.2
G9A U10A U11C C12A | 1.65
U7G U8G G9A U10A U11A C12G | 1.16
U7C U8A G9C U10A U11G C12A | 1.06
U7G U8C U10C U11A C12A C13G | 1.14

Variant | aptazyme ON/OFF ratio
U7C U8G U10G U11G C12U C13U | 1.4
U7C U8A G9A U10C U11A C13G | 1.08
U7C U8G G9A U10A U11C C12A C13G | 1.15
U7G G9A U10C U11C C12G C13A | 1.1
U7A U8C U10A U11G C12G C13U | 1.45
U7C U8A G9A U10C U11A C12A | 1.12
U7C U8C U10C C12A C13A | 1.6
U7G U8G U11A C12U C13A | 1.56
U7C U8C G9C U10A C12G | 1.16
U7A U8C G9U U10G U11A C12G C13A | 1.22
U7A U8C G9U U10G U11A C12G C13U | 1.21
U7G G9C U10C U11A C12U C13U | 1.32
U7A G9A U10A U11G C12U C13G | 1.15
U8C G9U U10A U11G C13U | 1.32
U7C U8C U10A U11C C12G C13A | 1.22
U8A G9U U11A C12U C13A | 1.52
U7G U8G G9C U10C U11C C12G C13A | 1.05
U7C U8G G9U U10G U11C C12A C13G | 1.06
U7G U8G G9U U10A U11C C12G C13G | 1.09
U7C U8G G9U U11A C12G C13U | 1.08
